Where a chain is given by its changes, count along the chain named. Names may count otherwise.
T1: 3xFLAG-tagged full-length human PNPLA1, partially purified (pcDNA4/HisMaxC-mut-3xFLAG-hsPNPLA1) (human, UniProt Q8N8W4-1 1-532)
T1 construct: human PNPLA1, full-length open reading frame of NM_001145717.1; also called 3xFLAG-PNPLA1; source: Expi293F, transfected, partially purified (IMAC, HisTrap HP)
T1 sequence (looked up): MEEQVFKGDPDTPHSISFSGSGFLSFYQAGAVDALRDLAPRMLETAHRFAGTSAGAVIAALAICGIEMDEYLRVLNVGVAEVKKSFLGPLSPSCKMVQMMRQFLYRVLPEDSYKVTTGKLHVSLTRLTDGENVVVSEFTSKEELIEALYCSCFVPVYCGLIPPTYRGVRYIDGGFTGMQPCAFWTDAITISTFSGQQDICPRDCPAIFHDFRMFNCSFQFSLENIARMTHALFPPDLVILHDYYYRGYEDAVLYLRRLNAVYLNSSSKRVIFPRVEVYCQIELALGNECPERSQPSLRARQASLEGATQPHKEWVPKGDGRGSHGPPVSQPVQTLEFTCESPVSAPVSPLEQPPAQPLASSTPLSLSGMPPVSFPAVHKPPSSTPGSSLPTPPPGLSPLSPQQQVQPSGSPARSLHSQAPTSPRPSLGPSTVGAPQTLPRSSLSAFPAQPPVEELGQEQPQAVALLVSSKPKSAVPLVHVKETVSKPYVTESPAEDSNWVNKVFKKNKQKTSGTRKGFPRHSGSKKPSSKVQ

B1: Xpress-tagged human ABHD5 p.E260K (natural protein, UniProt Q8WTS1 1-349, looked up)
chain: MAAEEEEVDSADTGERSGWLTGWLPTWCPTSISHLKEAEEKMLKCVPCTYKKEPVRISNGNKIWTLKFSHNISNKTPLVLLHGFGGGLGLWALNFGDLCTNRPVYAFDLLGFGRSSRPRFDSDAEEVENQFVESIEEWRCALGLDKMILLGHNLGGFLAAAYSLKYPSRVNHLILVEPWGFPERPDLADQDRPIPVWIRALGAALTPFNPLAGLRIAGPFGLSLVQRLRPDFKRKYSSMFEDDTVTEYIYHCNVQTPSGKTAFKNMTIPYGWAKRPMLQRIGKMHPDIPVSVIFGARSCIDGNSGTSIQSLRPHSYVKTIAILGAGHYVYADQPEEFNQKVKEICDTVD
notes: human ABHD5, full-length open reading frame of NM_016006.6 with the patient mutation p.E260K; Disease-associated (ABHD5-sEDD) missense variant made by site-directed mutagenesis; source: HEK293T, transfected (pcDNA4/HisMaxC), in lysate
B2: Xpress-tagged human ABHD5 p.Q130P (natural protein, UniProt Q8WTS1 1-349, looked up)
chain: B1 chain with Q130P, K260E
notes: human ABHD5, full-length open reading frame of NM_016006.6 with the patient mutation p.Q130P; Disease-associated (ABHD5-sEDD) missense variant made by site-directed mutagenesis; source: HEK293T, transfected (pcDNA4/HisMaxC), in lysate
B3: Xpress-tagged human ABHD5 p.H82R (natural protein, UniProt Q8WTS1 1-349, looked up)
chain: B1 chain with H82R, K260E
notes: human ABHD5, full-length open reading frame of NM_016006.6 with the patient mutation p.H82R; Disease-associated (ABHD5-sEDD) missense variant made by site-directed mutagenesis; source: HEK293T, transfected (pcDNA4/HisMaxC), in lysate
B4: Xpress-tagged human ABHD5 p.R297N (natural protein, UniProt Q8WTS1 1-349, looked up)
chain: B1 chain with K260E, R297N
notes: human ABHD5, full-length open reading frame of NM_016006.6 with the patient mutation p.R297N; Disease-associated (ABHD5-sEDD) missense variant made by site-directed mutagenesis; source: HEK293T, transfected (pcDNA4/HisMaxC), in lysate
B5: Xpress-tagged human ABHD5 p.G271R (natural protein, UniProt Q8WTS1 1-349, looked up)
chain: B1 chain with K260E, G271R
notes: human ABHD5, full-length open reading frame of NM_016006.6 with the patient mutation p.G271R; Disease-associated (ABHD5-sEDD) missense variant made by site-directed mutagenesis; source: HEK293T, transfected (pcDNA4/HisMaxC), in lysate
B6: Xpress-tagged human ABHD5 p.S115G (natural protein, UniProt Q8WTS1 1-349, looked up)
chain: B1 chain with S115G, K260E
notes: human ABHD5, full-length open reading frame of NM_016006.6 with the patient mutation p.S115G; Disease-associated (ABHD5-sEDD) missense variant made by site-directed mutagenesis; source: HEK293T, transfected (pcDNA4/HisMaxC), in lysate

Target: T1, 3xFLAG-tagged full-length human PNPLA1, …
Experiment: ELISA; solid-phase interaction assay: 1.8 μg/well of purified 3xFLAG-PNPLA1, PLIN2 or PLIN3 coated on MaxiSorp plates (50 mM Tris-HCl pH 8.0, 200 mM NaCl); 40 μg HEK293T lysate with Xpress-tagged ABHD5 variants in TBS with 2% BSA and 0.05% Tween 20, overnight at 4°C; anti-Xpress and HRP secondary antibody, TMB, absorbance at 620 nm, background subtracted and normalised to expression
Conditions: one partner purified

Row | Binder | change of PNPLA1 binding (normalised absorbance) against wild-type ABHD5
1 | B1 | 25%
2 | B2 | 16%
3 | B3 | 44%
4 | B4 | -87%
5 | B5 | -59%
6 | B6 | -17%
